Holding throughout (experiment): ITC
Background: In ITC the heat of successive injections is recorded.

Assay [1] concerns the target PP1α_(7–330) (human) (UniProt P62136).
Assay [2] concerns the target PP1γ_(7–323) (human, UniProt P36873 7-323).
Assay [3] deals with PP1γ_(7–300) (human, UniProt P36873 7-300).
Sequence of PP1γ_(7–300) (P36873 7-300): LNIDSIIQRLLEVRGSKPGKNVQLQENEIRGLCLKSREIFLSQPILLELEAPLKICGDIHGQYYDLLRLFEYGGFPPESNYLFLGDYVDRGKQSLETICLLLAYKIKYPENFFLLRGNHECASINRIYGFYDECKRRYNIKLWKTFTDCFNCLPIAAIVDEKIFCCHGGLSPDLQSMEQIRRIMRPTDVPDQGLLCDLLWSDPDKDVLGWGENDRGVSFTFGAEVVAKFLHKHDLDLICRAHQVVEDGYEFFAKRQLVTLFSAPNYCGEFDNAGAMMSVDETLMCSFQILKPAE

Sequence of PP1γ_(7–323) (P36873 7-323): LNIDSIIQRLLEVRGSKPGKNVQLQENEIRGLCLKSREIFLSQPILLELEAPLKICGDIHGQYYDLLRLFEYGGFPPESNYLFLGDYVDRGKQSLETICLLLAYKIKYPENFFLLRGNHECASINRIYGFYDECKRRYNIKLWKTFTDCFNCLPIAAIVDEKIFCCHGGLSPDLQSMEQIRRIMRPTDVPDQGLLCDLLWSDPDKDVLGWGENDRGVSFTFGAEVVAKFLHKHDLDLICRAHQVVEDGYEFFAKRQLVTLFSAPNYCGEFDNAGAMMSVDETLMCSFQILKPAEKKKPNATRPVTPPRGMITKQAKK

Broadly, the Kd is the constant that tells how readily two partners part at equilibrium. Turning to “KNL1_(1–80) (from UniProt Q8NG31 1-80) (domain or fragment)”, in assay [1], the Kd is 46.4 nM and the dH is -22.6 kcal/mol.

On to “KNL1_(1–80)S24AS25A (from UniProt Q8NG31 1-80) (domain or fragment)”, for which, in assay [1], the Kd was 93.5 nM and the dH is -21.5 kcal/mol.

Take “KNL1_(1–80)S24DS25D (from UniProt Q8NG31 1-80) (domain or fragment)”: in assay [1], the Kd turned out to be 267 nM and the dH was -10.9 kcal/mol.

In assay [1], “KNL1_(1–80)S56D (from UniProt Q8NG31 1-80) (domain or fragment)” yielded a Kd of 14.7 nM and a dH of -12.4 kcal/mol.

With “KNL1_(1–80)S60A (from UniProt Q8NG31 1-80) (domain or fragment)”, in assay [1], the Kd is 154 nM and the dH was -20.1 kcal/mol.

In assay [1], “KNL1_(1–80)S60D (from UniProt Q8NG31 1-80) (domain or fragment)” came in with a Kd of 236 nM and a dH of -30.7 kcal/mol.

In assay [1], “KNL1_(1–80)SILK/AAAA (SILK_(dead)) (from UniProt Q8NG31 1-80) (domain or fragment)” had a dissociation constant Kd of 228 nM and a dH of -21.5 kcal/mol.

Consider “KNL1_(23–80) (from UniProt Q8NG31 23-80) (domain or fragment)”, for which, in assay [1], the Kd was determined as 89 nM and the dH is -13.7 kcal/mol.

B1: KNL1_(1–150) (domain or fragment, human, UniProt Q8NG31 1-150, looked up)
chain: MDGVSSEANEENDNIERPVRRRHSSILKPPRSPLQDLRGGNERVQESNALRNKKNSRRVSFADTIKVFQTESHMKIVRKSEMEGCSAMVPSQLQLLPPGFKRFSCLSLPETETGENLLLIQNKKLEDNYCEITGMNTLLSAPIHTQMQQK
In assay [2], B1 yielded a Kd of 55.2 nM and a dH of -9.3 kcal/mol.

B2: KNL1_(23–80) (domain or fragment, human, UniProt Q8NG31 23-80, looked up)
chain: HSSILKPPRSPLQDLRGGNERVQESNALRNKKNSRRVSFADTIKVFQTESHMKIVRKS
In assay [2], B2 displayed a Kd of 52.4 nM and a dH of -10 kcal/mol. In assay [3], this molecule showed a Kd of 82 nM and a dH of -28.3 kcal/mol.

B3: KNL1_(1–80) (domain or fragment, human, UniProt Q8NG31 1-80, looked up)
chain: MDGVSSEANEENDNIERPVRRRHSSILKPPRSPLQDLRGGNERVQESNALRNKKNSRRVSFADTIKVFQTESHMKIVRKS
In assay [2], B3 came in with a Kd of 38.3 nM and a dH of -8.6 kcal/mol.

These data come from paper PMC6601351 (Structure (London, England : 1993), 2018).
